The Human Domainome abundance scans (Beltran et al. 2025)
± gives the uncertainty stated by the source.

B1: Nucleosome-remodeling factor subunit BPTF, residues 2862 to 2918; numbered along this chain, Q12830 (parent)
chain: TKKDTKLYCICKTPYDESKFYIGCDRCQNWYHGRCVGILQSEAELIDEYVCPQCQST

Variants of: B1
Test: abundance fitness (aPCA) (normalised: wild type 0, dead -1); higher = more abundant; growth selection in yeast, the domain comes from the species named
Details: Homo sapiens

Abundance fitness, by site and new letter:
C11: D -0.759 ± 0.11, H -1.01 ± 0.2, E -0.638 ± 0.15, R -0.818 ± 0.1, G -0.771 ± 0.079, Y -0.997 ± 0.1, K -0.822 ± 0.15, N -0.857 ± 0.21, L -0.828 ± 0.092, P -0.802 ± 0.12, M -0.803 ± 0.14, V -1.03 ± 0.1, W -1.09 ± 0.19, F -1.12 ± 0.19, S -0.934 ± 0.093, I -0.968 ± 0.18, Q -0.947 ± 0.17, A -0.934 ± 0.094
T5: L -0.092 ± 0.063, F -0.076 ± 0.068, V -0.282 ± 0.06, M 0.024 ± 0.094, H -0.055 ± 0.066, S -0.071 ± 0.057, Q -0.052 ± 0.1, N 0.016 ± 0.063, G -0.155 ± 0.073, W -0.238 ± 0.11, C 0.002 ± 0.077, I -0.017 ± 0.062, A -0.213 ± 0.07, E 0.064 ± 0.12, D 0.028 ± 0.08, K 0.05 ± 0.086, Y -0.016 ± 0.066
Y15: H -0.106 ± 0.12, F -0.02 ± 0.1, I -0.073 ± 0.1, E -0.489 ± 0.1, G -0.492 ± 0.076, D -0.438 ± 0.11, C -0.505 ± 0.13, A -0.366 ± 0.081
T13: H -0.518 ± 0.14, M -0.176 ± 0.14, L -0.292 ± 0.093, G -0.567 ± 0.46, K -0.044 ± 0.11, N -0.297 ± 0.074, A -0.357 ± 0.18, P -0.674 ± 0.12, C -0.577 ± 0.19, I -0.482 ± 0.08, S -0.116 ± 0.071, R -0.22 ± 0.12, Q -0.116 ± 0.17, D -0.54 ± 0.19
Y8: D 0.072 ± 0.13, C -0.028 ± 0.12, A 0.065 ± 0.09, E 0.166 ± 0.12, P -0.298 ± 0.1, L -0.043 ± 0.081, W -0.164 ± 0.11, R -0.105 ± 0.078, G 0.051 ± 0.12, I -0.166 ± 0.12, S -0.014 ± 0.078, Q 0.054 ± 0.14, F -0.037 ± 0.15, V -0.081 ± 0.11, K 0.065 ± 0.15, M 0.015 ± 0.1, T -0.041 ± 0.097
P14: M -0.096 ± 0.095, E -0.163 ± 0.11, D -0.581 ± 0.12, Y -0.131 ± 0.13, S -0.161 ± 0.074, H -0.275 ± 0.11, N -0.191 ± 0.14, K -0.096 ± 0.1, V -0.229 ± 0.087, Q -0.263 ± 0.092, I -0.216 ± 0.16, G -0.42 ± 0.075, L -0.212 ± 0.085, A 0.008 ± 0.08, T -0.206 ± 0.083, C -0.367 ± 0.11, W -0.447 ± 0.088
C9: P -0.716 ± 0.068, D -0.827 ± 0.1, N -0.932 ± 0.096, L -0.815 ± 0.065, T -0.851 ± 0.081, F -0.916 ± 0.071, H -0.838 ± 0.077, R -0.879 ± 0.09, E -0.971 ± 0.22, Q -0.846 ± 0.099, V -0.986 ± 0.084, G -0.801 ± 0.078, A -0.877 ± 0.081, I -1.05 ± 0.094, K -0.706 ± 0.17
T1: E -0.185 ± 0.28, R -0.281 ± 0.15, W -0.152 ± 0.19, S -0.104 ± 0.091, V -0.177 ± 0.17, I -0.132 ± 0.19, L -0.256 ± 0.18, D -0.071 ± 0.34, H -0.277 ± 0.26, N 0.018 ± 0.22, G -0.147 ± 0.15, P -0.264 ± 0.18, A -0.54 ± 0.29, K -0.199 ± 0.16, M -0.13 ± 0.19
L7: W -0.13 ± 0.076, I -0.179 ± 0.092, R -0.18 ± 0.062, V -0.076 ± 0.072, N 0.037 ± 0.079, K -0.219 ± 0.084, T -0.012 ± 0.062, G -0.005 ± 0.073, H 0.018 ± 0.067, P -0.071 ± 0.068, A -0.014 ± 0.071, D 0.023 ± 0.1, S -0.046 ± 0.057, F -0.089 ± 0.073, C -0.058 ± 0.07, Y -0.022 ± 0.066
K12: T -0.106 ± 0.074, H -0.061 ± 0.097, F -0.253 ± 0.084, N -0.233 ± 0.12, L -0.121 ± 0.062, V -0.808 ± 0.094, R -0.07 ± 0.062, W -0.56 ± 0.088, P -0.907 ± 0.12, I -0.869 ± 0.14, M -0.167 ± 0.095, S -0.119 ± 0.058, C -0.104 ± 0.067, E -0.025 ± 0.15, Y -0.134 ± 0.1, D -0.2 ± 0.12, Q 0.006 ± 0.086
K3: H -0.424 ± 0.16, C -0.697 ± 0.15, W -0.629 ± 0.12, M -0.152 ± 0.11, R -0.131 ± 0.068, A -0.146 ± 0.073, T 0.013 ± 0.084, S 0.036 ± 0.078, L -0.111 ± 0.073, I -0.057 ± 0.097, E 0.014 ± 0.12, Y -0.273 ± 0.13, G -0.148 ± 0.071
